B1: His-CLEC1 (Biotechne #1704-CL) (receptor)
chain: QYYQLSNTGQDTISQMEERLGNTSQELQSLQVQNIKLAGSLQHVAEKLCRELYNKAGAHRCSPCTEQWKWHGDNCYQFYKDSKSWEDCKYFCLSENSTMLKINKQEDLEFAASQSYSEFFYSYWTGLLRPDSGKAWLWMDGTPFTSELFHIIIDVTSPRSRDCVAILNGMIFSKDCKELKRCVCERRAGMVKPESLHVPPETLGEGD
modifications: biotinylated in the ELISA experiments (sites not given)
notes: Bought recombinant protein produced in NS0 cells; also called His-CLEC1A; His-CLEC-1A; not shown: His tag
B2: Soluble Clec1-human IgG Fc chimera (Fc-Clec-1) (Fc fusion)
chain: DKTHTCPPCPAPPVAGGPSVFLFPPKPKDTLMISRTPEVTCVVVDVSHEDPEVKFNWYVDGVEVHNAKTKPREEQYNSTYRVVSVLTVLHQDWLNGKEYKCKVSNKGLPSSIEKTISKAKGQPREPQVYTLPPSRDELTKNQVSLTCLVKGFYPSDIAVEWESNGQPENNYKTTPPVLDSDGSFFLYSKLTVDKSRWQQGNVFSCSVMHEALHNHYTQKSLSLSPGKQYYQLSNTGQDTISQMEERLGNTSQELQSLQVQNIKLAGSLQHVAEKLCRELYNKAGAHRCSPCTEQWKWHGDNCYQFYKDSKSWEDCKYFCLSENSTMLKINKQEDLEFAASQSYSEFFYSYWTGLLRPDSGKAWLWMDGTPFTSELFHIIIDVTSPRSRDCVAILNGMIFSKDCKELKRCVCERRAGMVKPESLHVPPETLGEGD
modifications: biotinylated in the ELISA experiments (sites not given)
notes: domain: Fc; also called Fc-CLEC-1A; Fc-CLEC1A
B3: Fc only (human IgG1-E3 Fc control) (other, UniProt P01857-1 104-330, looked up)
chain: DKTHTCPPCPAPPVAGGPSVFLFPPKPKDTLMISRTPEVTCVVVDVSHEDPEVKFNWYVDGVEVHNAKTKPREEQYNSTYRVVSVLTVLHQDWLNGKEYKCKVSNKGLPSSIEKTISKAKGQPREPQVYTLPPSRDELTKNQVSLTCLVKGFYPSDIAVEWESNGQPENNYKTTPPVLDSDGSFFLYSKLTVDKSRWQQGNVFSCSVMHEALHNHYTQKSLSLSPGK
modifications: biotinylated in the ELISA (sites not given)
notes: domain: Fc; also called Fc alone; Fc-biot control

Tests used:
[1] = target: Recombinant human TRIM21 protein, TRIM21-his (Sinobiological #18010-H07B) (human) (UniProt P19474); assay: antagonist assay of FIG. 6A against a control antibody; format not stated; competitor CLEC-1
[2] = target: Recombinant human TRIM21 protein, TRIM21-his (Sinobiological #18010-H07B) (human) (UniProt P19474); assay: competition ELISA, TRIM21-his coated, antibody in excess (20 µg/ml), competitor biotinylated Fc-CLEC1 in dose response
[3] = target: T1, Recombinant human TRIM21 protein, TRIM21-his (Sinobiological #18010-H07B) (human, UniProt P19474 1-475); assay: ELISA, TRIM21-his coated, biotinylated His-CLEC1 in dose response, streptavidin-peroxidase
T1 construct: Bought, produced in baculovirus; coated on ELISA plates or immobilised on a CM5 chip; not shown: his tag

[4] = target: T1, Recombinant human TRIM21 protein, …; assay: ELISA, TRIM21-his coated, biotinylated Fc-CLEC1 in dose response, streptavidin-peroxidase
Excerpt: (§1) Plate was saturated with superblock buffer (#37515, Thermofisher).

[5] = target: T1, Recombinant human TRIM21 protein, …; assay: ELISA, TRIM21-his coated, biotinylated Fc in dose response (FIG. 4A)
Excerpt: as §1

[6] = target: T2, endogenous TRIM21 from whole cell extracts (RAJI, MoDC, HPB-ALL cells) (human, UniProt P19474 1-475); assay: co-immunoprecipitation from RAJI whole cell extract, anti-TRIM21 Western blot (FIG. 3A); supernatant not depleted of TRIM21 (FIG. 3B)
T2 construct: Endogenous cellular protein of human cell lines and monocyte derived dendritic cells, not a recombinant construct; also called TRIM21 E3 Ubiquitin-protein Ligase; cellular endogenous TRIM-21
Excerpt: FIG. 3: Co-immunoprecipitation of TRIM21 with CLEC-1A.
The experiment was repeated using Monocyte derived Dendritic Cells (MoDC) protein extracts as starting endogenous protein mix.

T1 sequence (P19474 whole entry): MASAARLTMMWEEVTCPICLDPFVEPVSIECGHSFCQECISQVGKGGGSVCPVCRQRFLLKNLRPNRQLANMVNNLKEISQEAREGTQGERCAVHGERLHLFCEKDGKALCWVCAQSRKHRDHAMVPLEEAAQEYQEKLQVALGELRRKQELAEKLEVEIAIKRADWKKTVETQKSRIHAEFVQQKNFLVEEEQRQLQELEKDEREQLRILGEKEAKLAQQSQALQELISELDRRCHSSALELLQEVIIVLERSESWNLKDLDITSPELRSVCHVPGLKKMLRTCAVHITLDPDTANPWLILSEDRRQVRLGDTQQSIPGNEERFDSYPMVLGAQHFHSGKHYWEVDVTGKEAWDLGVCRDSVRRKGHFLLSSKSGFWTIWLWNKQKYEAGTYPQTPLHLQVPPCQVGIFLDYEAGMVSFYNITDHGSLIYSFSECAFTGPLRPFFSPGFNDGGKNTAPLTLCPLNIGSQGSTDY
Recombinant human TRIM21 protein, TRIM21-his (Sinobiological #18010-H07B) (human), sequence (P19474 whole entry): as above
T2 sequence (P19474 whole entry): as above

Row | Molecule | percent decrease of the Fc-CLEC1/TRIM21 interaction [2] [%] | also measured
1 | anti-TRIM21 antibody Fisher PA5-22295 |  | percent reduction of the binding between CLEC-1 and TRIM21 [1]: 65%
2 | anti-TRIM21 antibody MAB6219 (Biotechne) | 50 | 
3 | anti-TRIM21 antibody MAB62191 (Biotechne) | 50 | 
4 | anti-TRIM21 antibody PA5-18147 (Fisher) | 50 | 
5 | anti-TRIM21 antibody PA5-22294 (Fisher / Invitrogen) | 50 | 
6 | anti-TRIM21 antibody sc-25351 (Santacruz) | 50 | 
7 | B1 |  | EC50 [3]: 13 µg/mL
8 | B2 |  | EC50 [4]: 15 µg/mL
9 | B3 |  | binding result [5]: no binding (tested: 30 µg/ml); binding result [6]: no binding
